The text below walks through data of the DeepSol protein solubility set.

The series can be described thus: soluble on expression in E. coli; label from the status in PepcDB or PDB records.
For “MSSNRQAYYKNNAKEQIGKEKRNEEVVSIRKDKREEAISKRRNINTQIEDDSETSTTPPGPFDANLLRLTVAAAQSSDPAEQLTAVQQARKMLSTDRNPPIDDLIGSGILPVLVQCLSSTDPNLQFEAAWALTNIASGTSEQTQAVVNAGAVPLFLQLLSCGNLNVCEQSVWALGNIIGDGPHFRDYCLELGILQPLLQFINPEIPIGFLRNVTWVIVNLCRCKDPAPSPAVVRTILPALSLLIHHQDTNILIDTVWALSYLTDGGNEHIQMVIEAQVVTHLVPLLGHVDVKVQTAALRAVGNIVTGTDEQTQLVLDSGVLRFMPGLLAHYKEKINKEAVWFVSNITAGNQQQVQDVFDAGIMPMIIHLLDRGDFPTQKEAAWAISNVTISGRPNQVEQMVKLGVLRPFCAMLSCTDSQIIQVVLDGINNILKMAGEAAEQVTSEIEECGGLDKIENLQNHENEDIYKLAFEIIDNFFSSDDETGNVEGAQSSAFGGDVPPVPDAPNGGWNFGK”, the “soluble on expression in E. coli” value is given as “not soluble”.
In the case of “MPRARCKRCLRPTGYCLCALIPQIESRTRVLILQHPDEVSHALNTARLAALGLVNAQLCVGEVFDDLHTLLNPPGYQARLLFPGDAAETLTAYAPDATPMLLVVPDGTWRKARKLLHLNPLLAALPRVTLGSVPASRYRLRKAPGPEALSTLEAIVHTLQTLEAPNAFEALLKPFDALIDGQIQAMGNDTYQRNHGNQRLEHHHHHH”, the “soluble on expression in E. coli” value was “not soluble”.
In the case of “MRKKISIIGAGFVGSTTAHWLAAKELGDIVLLDIVEGVPQGKALDLYEASPIEGFDVRVTGTNNYADTANSDVIVVTSGAPRKPGMSREDLIKVNADITRACISQAAPLSPNAVIIMVNNPLDAMTYLAAEVSGFPKERVIGQAGVLDAARYRTFIAMEAGVSVKDVQAMLMGGHGDEMVPLPRFSTISGIPVSEFIAPDRLAQIVERTRKGGGEIVNLLKTGSAYYAPAAATAQMVEAVLKDKKRVMPVAAYLTGQYGLNDIYFGVPVILGAGGVEKILELPLNEEEMALLNASAKAVRATLDTLKSL”, the “soluble on expression in E. coli” value is “soluble”.
As to “MTMTETMNVDLLLEMESVHVKPFTEHDKVILRSYEAVVDGIASLIGPFCEIVLHSLEDLNTSAIKIANGENTGRQVGSPITDMALKMLRDIEGSERNFSRSYFTRAKGGVLMKSITVAIRNGENRVIGLLCINVNLDAPFSQVLKSFMPTQEAQEAASSVNFASDVEELVDQTVERTIEEINGDKSVSNNTKNRQIVMALFDKGIFDIKDAINRVADRLNISKHTVYLYIRQRKTEDDEK”, the “soluble on expression in E. coli” value is on record as “not soluble”.
Next, “MSHRSPSVTPAVSVLIPAWNAVRHLPAALDGLLSQTFQDWEAVVVDDGSQDETPALLAAYAARDARIRPLHVEHGGIVHALNHGLLHVRGRHVARMDADDTCHPERLALQCHALDNAPHLGLVASRVTFGGDAAQCGGFVRYVDWTNSLLCHEDIALGRFRESPLVHPSVMFRRELIDRFGPYANGPFPEDYELWLRWLEAGVRMEKLPEHLLVWNDPPGRLTRTHDNYAEAGFVALRTRYLARWLCAHNPQHPDVWVIGAGKASRRRARPLCEHGIRIRAWVDIDPHKIGNIVEGLPVVGREAMPAPGQGFMLAFLAGHGAAEELELFLHGAGYLPGQDYLLASLEHHHHHH”: “soluble”.
Next, “MSRSQLTILTNICLIEDLETQRVVMQYRAPENNRWSGYAFPGGHVENDEAFAESVIREIYEETGLTIQNPQLVGIKNWPLDTGGRYIVICYKATEFSGTLQSSEEGEVSWVQKDQIPNLNLAYDMLPLMEMMEAPDKSEFFYPRRTEDDWEKKIF”: “soluble”.
For “HHHGIRMTRISREMMKELLSVYFIMGSNNTKADPVTVVQKALKGGATLYQFREKGGDALTGEARIKFAEKAQAACREAGVPFIVNDDVELALNLKADGIHIGQEDANAKEVRAAIGDMILGVAAHTMSEVKQAEEDGADYVGLGPIYPTETKKDTRAVQGVSLIEAVRRQGISIPIVGIGGITIDNAAPVIQAGADGVSMISAISQAEDPESAARKFREEIQTYKTGR”, the “soluble on expression in E. coli” value is listed as “soluble”.
Take “GHMPNIPPPFTAPYAPDDAEIAARLLPASHLSPPQEARIHRTATRLIEAIRKRDDRLGGVEDMLREFALSTKEGLALMVLAEALLRVPDARTADQFIEDKLGEGDFIHHETKSTAFLVNASAWALGLSARVIQPGETPDGTIGRLVKRLGAPAVRTATRQAMRLMGNHFVLGETIEQALERGKPRSGQKTRYSFDMLGEGARTAADARRYFDAYASAIETIGKAAGNHALPDRPGISVKLSALHPRFEAISRARVMVELVPQLLDLAQRAKAHDLNFTVDAEEADRLELSLDVIAATLADPSLKGWDGFGLAIQAYQKRASAVIDYVDALARAHDRKLMVRLVKGAYWDTEIKRAQERGLDGYPVFTRKAMTDLNYVACASKLLALRPRIFPQFATHNALTVATVLEMAEGSSGFEFQRLHGMGEALYEQLAKDHADIAYRTYAPVGSHRDLLAYLVRRLLENGANSSFVAQAADYRVPVPALLQRPADAIVRPQAAAHPRIPLPCDLFAPERRNSRGVEFGARTALDQLLTDVKAETGDLKPIADATPDQAHAAVAAARAGFAGWSRTPAGIRAAALEQAAHLLESRSAHFIALLQREGGKTLDDALSELREAADFCRYYAAQGRKLFGSETAMPGPTGESNALTMRGRGVFVAISPWNFPLAIFLGQVTAALMAGNSVVAKPAEQTPRIAREAVALLHEAGIPKSALYLVTGDGRIGAALTAHPDIAGVVFTGSTEVARSINRALAAKDGPIVPLIAETGGINAMIADATALPEQVADDVVTSAFRSAGQRCSALRLLFVQEDVADRMIEMVAGAARELKIGDPSDVATHVGPVIDVEAKQRLDAHIARMKTEARLHFAGPAPEGCFVAPHIFELTEAGQLTEEVFGPILHVVRYRPENLERVLRAIERTGYGLTLGVHSRIDDSIEAIIDRVQVGNIYVNRNMIGAVVGVQPFGGNGLSGTGPKAGGPHYLARFATEQTVTINTAAAGGNAALLAGEE”: the “soluble on expression in E. coli” value was “soluble”.
Regarding “MGSDKIHHHHHHMMLTTKLIYCCLVSIVLHPINNLNPKPYISLFNLQGILLPTQFSHSLTSLDAFAPRLLAWFEINGRHDLPWQQHQTDTPNPYIVWLSEVMLQQTQVTTVLPYFARFMASFPTVQDLAAAEWDTVAEHWAGLGYYARARNLHKGAKQLVEVIDETGEYPTTLAGWEAISGVGPSTAGAIMAMGLHRYGVICDGNVKRVLTRWAAIDGDITKSATTKELWALAERLTPKENSGLFAQAMMDMGATLCTRSKPACLLCPLQDDCLAHAQGRETDYPVKAKKQPKPSKFSNALLIENENGEILWLQRPDNGIWGGLWSLPLAFIEKISGKVAVKDADKNKNKELIAANDNQLLEVASNEKVYETEFTTAEQIINEWINKNELVAKSVNDTLLDDSPIKHSLTHFHWYLTPQTVNLNTKQAQEITEALQAGEININWLNADDAQATLGLPKAMVKILE”, the “soluble on expression in E. coli” value was “not soluble”.
Regarding “MTVGGMQPVSIMGKHLNNFERLSILEDYLSGSDSKVAIEQKYGLSHGLIRSWLSKFGLEDKVHPVPMKVSQSPQSELPLNEKEELEQLRKENRVLKSRLKREELGHQAYKLLVELAEETYGIQIRKNSEAK”, the “soluble on expression in E. coli” value is “not soluble”.
Consider “MSLAATGNASKPSLNSFYADGLGQLRNGLFSCFQPVFGYFGTKTTVEIEKSEDELWEIPFDAISELEWLGSGSQGAVFRGQLENRTVAVKKVNQLKETEIKHLRHLRHQNIIEFLGVCSKSPCYCIVMEYCSKGQLCTVLKSRNTITRELFAQWVKEIADGMHYLHQNKVIHRDLKSPNILISAEDSIKICDFGTSHMQKKMDSTMMSFCGTVSWMAPEMIKKQPCNEKVDVYSFGVVLWEMLTRETPYANIAQMAIIFGVGTNILSLPMPEEAPKGLVLLIKQCLSQKGRNRPSFSHIRQHWEIFKPELFEMTEEEWQLAWDSYREFAKCIQYPSTVTRDHGGPKSAFAMEEEIQRKRHEQLNHIKDIRNMYEMKLKRTNKMYDKLQGCFTELKLKESELAEWEKDLTEREGHHHHHH”, for which the “soluble on expression in E. coli” value is “not soluble”.
